In patent publication US20220380464A1 (Genmab, published 2022):

Assays:
[1] = target: T1, human CD3 on human T cells (human, UniProt P07766 23-207); test: flow cytometry on human T cells, PE anti-human IgG, GM-PE
T1 construct: Natural CD3/TCR complex on T cells isolated from human donor buffy coats; The other chains of the complex (CD3γ, CD3δ, CD3ζ, polyclonal TCR) are also present on the cells
Method: (§2) T cells were Isolated from a buffy coat fraction of anti-coagulated human donor blood samples and resuspended in PBS/0.1% BSA/0.02% azide at 1.8×10E6 cells/mL. 50 μL of T cell suspension and 50 μL of the antibody dilutions were combined in a 96 well plate on ice, Incubated for 30 min at 4° C. and washed twice with PBS/0.1% BSA/0.02% azide. […] The cells were resuspended in 120 μL PBS/0.1% BSA/0.02% azide and PE geometric Mean Fluorescence Intensity was measured. Binding curves were analyzed using non-linear regression (sigmoidal dose-response with variable slope) using GraphPad Prism V5.04 software (GraphPad Software, San Diego, Calif., USA) and apparent affinity (KD) was derived from the concentration at half-maximal binding.

[2] = target: T1, human CD3 on human T cells; test: flow cytometry on isolated human T cells, PE anti-human IgG detection
Method: as §2

CD3ε27-GSKa [3] = target: T2, CD3ε27-GSKa (human); test: BLI (Octet), summary table repeating Table 4
T2 construct: also called Mature CD3ε27-GSKa
Method: (§1) Experiments were carried out while shaking at 1000 rpm and at 30° C.

CD3ε27-GSKa [4] = target: T2, CD3ε27-GSKa; test: BLI (Octet HTX), UniTE antibody on anti-human Fc sensors, CD3ε27-GSKa in solution, 1:1 fit
Method: as §1

T1 sequence (P07766 23-207 limits assumed): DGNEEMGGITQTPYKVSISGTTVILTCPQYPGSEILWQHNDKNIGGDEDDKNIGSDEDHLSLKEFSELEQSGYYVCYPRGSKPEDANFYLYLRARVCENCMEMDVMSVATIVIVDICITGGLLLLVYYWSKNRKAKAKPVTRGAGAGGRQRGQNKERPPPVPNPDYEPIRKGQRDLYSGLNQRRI
T2 sequence (chain, as listed by the source limits assumed): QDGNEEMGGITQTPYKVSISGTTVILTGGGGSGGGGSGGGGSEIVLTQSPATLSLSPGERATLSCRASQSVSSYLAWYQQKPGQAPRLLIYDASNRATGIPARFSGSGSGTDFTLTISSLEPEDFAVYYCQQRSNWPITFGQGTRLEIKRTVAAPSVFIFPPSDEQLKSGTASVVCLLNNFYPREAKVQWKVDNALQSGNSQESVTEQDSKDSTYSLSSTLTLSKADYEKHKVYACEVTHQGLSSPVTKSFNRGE

| Binder | binding result [1] | Tcell binding average at 5000ng/ml (Geometric MFI) [2] [Geometric MFI] | Kd (CD3ε27-GSKa [3]) [nM] | Ka (CD3ε27-GSKa [4]) [M⁻¹] | Kd (CD3ε27-GSKa [4]) [nM] |
| --- | --- | --- | --- | --- | --- |
| UniTE-huCD3-H1L1-H101F-LT41K (antibody, V domains shown, Monovalent UniBody-TE format) VH: EVKLVESGGGLVQPGGSLRLSCAASGFTFNTYAMNWVRQAPGKGLEWVARIRSKYNNYATYYADSVKDRFTISRDDSKSSLYLQMNNLKTEDTAMYYCVRFGNFGNSYVSWFAYWGQGTLVTVSS VL: not shown | no binding (tested: 5000 ng/mL) | 641 |  |  |  |
| UniTE-huCD3-H1L1-Y114V-LT41K (antibody, V domains shown) VH: EVKLVESGGGLVQPGGSLRLSCAASGFTFNTYAMNWVRQAPGKGLEWVARIRSKYNNYATYYADSVKDRFTISRDDSKSSLYLQMNNLKTEDTAMYYCVRHGNFGNSYVSWFAVWGQGTLVTVSS VL: not shown |  | 6020 | 75 | 1.3e+07 | 75 |
| UniTE-huCD3-H1L1-Y114M-LT41K (antibody, V domains shown, Monovalent UniBody-TE format) VH: EVKLVESGGGLVQPGGSLRLSCAASGFTFNTYAMNWVRQAPGKGLEWVARIRSKYNNYATYYADSVKDRFTISRDDSKSSLYLQMNNLKTEDTAMYYCVRHGNFGNSYVSWFAMWGQGTLVTVSS VL: not shown |  | 3830 | 76 | 1.3e+07 | 76 |
